In PMC10783504, “Structural analysis of PLD3 reveals insights into the mechanism of lysosomal 5′ exonuclease-mediated nucleic acid degradation” (Nucleic Acids Research, 2023):

Tests used:
[1] = target: T1, hPLD3 luminal domain (Homo sapiens, UniProt Q8IV08 61-490); experiment: ITC; N = 1.0; dH -12 kcal/mol; no phosphorothioate, cleavable substrate; ITC: 20 mM HEPES pH 7.5, 150 mM NaCl, 10 C; 380 uM ssDNA in syringe, 10 uM hPLD3 in cell. Crystals: 15% PEG 4000, 0.02 M NaI, 0.9 M ammonium sulfate, 15% glycerol; conditions: protein: recombinant; tags: C-terminal 6xHis; chain copies: 2; single strand
T1 sequence: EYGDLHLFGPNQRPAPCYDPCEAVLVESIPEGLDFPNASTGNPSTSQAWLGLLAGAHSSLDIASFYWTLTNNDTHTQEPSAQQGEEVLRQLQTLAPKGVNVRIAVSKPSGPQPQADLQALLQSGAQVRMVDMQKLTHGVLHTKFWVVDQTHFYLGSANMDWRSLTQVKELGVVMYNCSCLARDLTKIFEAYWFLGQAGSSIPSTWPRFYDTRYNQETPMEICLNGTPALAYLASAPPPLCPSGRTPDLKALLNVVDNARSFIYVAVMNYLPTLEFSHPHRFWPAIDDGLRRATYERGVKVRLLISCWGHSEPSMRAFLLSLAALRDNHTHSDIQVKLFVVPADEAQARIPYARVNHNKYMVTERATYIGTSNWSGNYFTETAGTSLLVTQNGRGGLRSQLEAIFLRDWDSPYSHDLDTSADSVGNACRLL

[2] = target: T1, hPLD3 luminal domain; experiment: ITC; N = 0.9; dH 30 kcal/mol; ITC: 20 mM HEPES pH 7.5, 150 mM NaCl, 10 C; 380 uM ssDNA in syringe, 10 uM hPLD3 in cell. Crystals: 15% PEG 4000, 0.02 M NaI, 0.9 M ammonium sulfate, 15% glycerol; conditions: protein: recombinant; tags: C-terminal 6xHis; chain copies: 2; single strand
[3] = target: the molecule itself; experiment: AUC; sedimentation velocity, 40000 rpm, 20°C, 8 or 16 μM hPLD3, absorbance at 280 or 290 nm
[4] = target: the molecule itself; experiment: SEC; HiLoad 16/600 Superdex 200 pg column, HEPES buffer pH 7.5, calibrated with LMW and HMW protein standards
[5] = target: T1, hPLD3 luminal domain; experiment: ITC; ITC: 20 mM HEPES pH 7.5, 150 mM NaCl, 10 C; 380 uM ssDNA in syringe, 10 uM hPLD3 in cell. Crystals: 15% PEG 4000, 0.02 M NaI, 0.9 M ammonium sulfate, 15% glycerol; conditions: protein: recombinant; tags: C-terminal 6xHis; chain copies: 2; single strand

In the case of TTCATG (ssDNA), the Kd [1] is reported as 20 ± 2 µM.

TTCATG (ssDNA, phosphorothioate between nt 1 and 2 (mixed Rp/Sp)) [T*TCATG] was tested, and the Kd [2] was 28 ± 4 µM.

B1: luminal domain (residues 61–490) of human PLD3 (domain or fragment, UniProt Q8IV08 61-490, looked up)
chain: T1 sequence
modifications: N-glycosylated (Man5GlcNAc2, high-mannose type) at Asn97, Asn132, Asn236, Asn284 and Asn387, at least partially; Cys300 oxidized to cysteine sulfonic acid (OCS)
notes: human PLD3 (phospholipase D3), luminal domain, residues 61-490, starting directly after the transmembrane segment; In the crystals residues 72–98 and 101–490 are seen, 61–71 and 99–100 are not visible; also called hPLD3; hPLD3_(61-490); source: HEK293S GnTI- stably transfected monoclonal cell line, secreted into culture supernatant, purified (NiNTA, SEC)
With B1 the “stoichiometry N” value [3] was 4 and the “stoichiometry N” value [4] was 2.

B2: T*T*C*A*T*G* (ssDNA)
DNA: TTCATG
modifications: phosphorothioate at all linkages (mixed Rp/Sp); printed with * also after the last G
B2: no binding [5].
